Source: patent publication US20240092847A1, “FUNCTIONAL NUCLEIC ACID MOLECULE AND METHOD” (The University Court of The University of Edinburgh, priority 2021, published 2024)

Target: T1, SOX2 (Homo sapiens, UniProt P48431)
T1 construct: endogenous in cells; host or cells: nuclear extract of GSC7 and GSC328 (patient-derived glioblastoma stem cell lines)
Assay: Biotinylated enhancer pull down with nuclear extract and mass spectrometry
Format: binding
Conditions: normalised to random sequence 599
Experimental: The oligo was PCR-amplified using biotinylated primers. The PCR product was then SPRI purified to remove biotinylated primer dimers. These dsDNA fragments were incubated with nuclear extract from GSC7 and GSC328. They were then bound to streptavidin magnetic beads, washed three times and the frozen beads were sent for mass spectrometry analysis.
All the buffers were prepared the day before, passed through a […] filter (except the dialysis buffer) and left at 4° C. overnight. DTT and protease inhibitors were added just before use. The cells were scraped on the media and collected on 50 ml falcons, which were spun at 1350 rcf 5 minutes at 4° C. The pellet was resuspended in 50 ml of ice cold PBS, an aliquot was taken for cell counting, and spun again spun at 1350 rcf 5 minutes at 4° C. The pellet was then resuspended in 5 ml per 40 million cells of ice cold buffer A (10 mM HEPES pH 7.9, 1.5 mM MgCl2, 10 mM KCl, 0.5 mM DTT, protease inhibitors (Complete, Roche, 11697498001)) and incubated on ice for 10 min. The cell suspension was transferred to a glass Dounce homogenizer and dounced 40 times on ice. The cell suspension was transferred to a falcon and centrifuged at 1350 rcf for 10 min at 4° C. […] The supernatant was collected into new 1.5 ml tubes and quantified (Pierce BCA Protein Assay Kit, Thermo Scientific, Cat 23225). […]

T1 sequence (P48431 whole entry): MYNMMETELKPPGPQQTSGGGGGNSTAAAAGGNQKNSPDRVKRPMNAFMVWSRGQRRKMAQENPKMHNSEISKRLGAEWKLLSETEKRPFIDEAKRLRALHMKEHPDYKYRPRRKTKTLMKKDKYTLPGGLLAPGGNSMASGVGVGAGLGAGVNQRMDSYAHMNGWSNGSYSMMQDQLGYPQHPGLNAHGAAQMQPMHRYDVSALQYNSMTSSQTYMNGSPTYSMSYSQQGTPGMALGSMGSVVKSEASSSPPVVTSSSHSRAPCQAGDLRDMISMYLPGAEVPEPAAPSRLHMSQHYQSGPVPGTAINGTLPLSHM

B1: ID1101: enhancer fragment, SEQ ID NO: 4 (nucleic acid)
DNA: GTGAGTGTGACTCACATGCTGGCATCAGAGCCCCTCTTAGAGCTTAGAACACTGGGCCTCTGTCAGGCAAAGAAAAGGAGTCCCTATGAATAGCCATCTCCACAAATAGCAGTTACTGTCACTTCTTAAAAGACACAAGCATGGCTGGAGACCGGCACTG
SOX2 enrichment in pull down (mass spectrometry) (G7 nuclear extract): 4.4 fold | SOX2 enrichment in pull down (mass spectrometry) (GSC328 nuclear extract): 23 fold
